Reference: paper PMC9411612, “Single residue modulators of amyloid formation in the N-terminal P1-region of α-synuclein” (Nature Communications, 2022)

B1: MTSL-labelled Cys-P1-peptide (Ac-C-KTKE-GVLYVGS-KTKE-NH2) (peptide)
peptide: CKTKEGVLYVGSKTKE
modifications: N-terminal acetylation; MTSL on the thiol group of the introduced N-terminal cysteine; C-terminal amidation
notes: cysteine introduced at the N-terminus for MTSL labelling; observed mass 1995.07 Da after labelling; also called MTSL-labelled peptide-P1; 14N P1-peptide N-terminally labelled with MTSL; source: synthetic peptide, bought: Severn Biotech Ltd; labelled with MTSL, reverse phase HPLC
B2: P1-peptide (Ac-KTKE-GVLYVGS-KTKE-NH2) (peptide)
peptide: Ac-KTKEGVLYVGSKTKE-NH2
notes: also called peptide-P1; peptide P1; source: synthetic peptide, bought: Severn Biotech Ltd

How the values were obtained:
[1] = target: T1, wild-type alpha-synuclein (WT αSyn) (UniProt P37840 1-140); assay: NMR paramagnetic relaxation enhancement (PRE); 100 µM 15N-labelled protein with 100 µM 14N MTSL-labelled peptide; diamagnetic spectra after 1 mM ascorbic acid; 20 mM Tris-HCl, pH 7.5, 200 mM NaCl, 15 °C; conditions: both partners purified
[2] = target: T2, ΔP1 αSyn (alpha-synuclein with residues 36-42 deleted) (UniProt P37840 1-140, deletion of the seven-residue P1 sequence 36GVLYVGS42 (ΔP1)); assay: as above; conditions: both partners purified
[3] = target: T2, ΔP1 αSyn (alpha-synuclein with residues …); assay: cell-based or functional assay
[4] = target: T1, wild-type alpha-synuclein (WT αSyn); assay: native MS; native nESI-MS; 20 µM protein, αSyn:P1-peptide 1:10, 20 mM ammonium acetate pH 7.5; conditions: both partners purified
[5] = target: T2, ΔP1 αSyn (alpha-synuclein with residues …); assay: as above; conditions: both partners purified

Binder	binding result [1]	binding result [2]	t50 of amyloid formation (ThT fluorescence), 100 µM ΔP1 with P1-peptide in 10-fold molar excess, pH 7.5 (aggregation begins within 110 h at equimolar ratio) [3]	stoichiometry N [4]	stoichiometry N [5]
B1	binds	binds	–	–	–
B2	–	–	14.4 h	1	1
